Columns and labels:
[1] = biological target: recombinant Plasmodium falciparum circumsporozoite protein (CSP) (Plasmodium falciparum) (UniProt P19597); experiment: cell-based or functional assay
human FcRn (human) = human FcRn (human) (UniProt P55899); experiment: SPR, human FcRn, pH 6.0
[2] = biological target: recombinant Plasmodium falciparum circumsporozoite protein (CSP) (Plasmodium falciparum) (UniProt P19597); experiment: SPR, recombinant CSP; geometric mean, n=2

Sequence of recombinant Plasmodium falciparum circumsporozoite protein (CSP) (Plasmodium falciparum) (P19597 21-375 limits assumed): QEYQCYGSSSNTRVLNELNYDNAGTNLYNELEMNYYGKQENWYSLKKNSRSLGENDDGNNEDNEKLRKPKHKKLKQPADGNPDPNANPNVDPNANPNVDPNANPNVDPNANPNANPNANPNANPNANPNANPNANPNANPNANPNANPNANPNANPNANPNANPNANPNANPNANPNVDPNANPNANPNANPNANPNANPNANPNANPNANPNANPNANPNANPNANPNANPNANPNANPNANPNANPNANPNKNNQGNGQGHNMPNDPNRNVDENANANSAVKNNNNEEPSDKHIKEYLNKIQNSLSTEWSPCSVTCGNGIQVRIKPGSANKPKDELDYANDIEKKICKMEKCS
Sequence of human FcRn (human) (P55899 24-297 limits assumed, form in doubt, chain 1 of 2): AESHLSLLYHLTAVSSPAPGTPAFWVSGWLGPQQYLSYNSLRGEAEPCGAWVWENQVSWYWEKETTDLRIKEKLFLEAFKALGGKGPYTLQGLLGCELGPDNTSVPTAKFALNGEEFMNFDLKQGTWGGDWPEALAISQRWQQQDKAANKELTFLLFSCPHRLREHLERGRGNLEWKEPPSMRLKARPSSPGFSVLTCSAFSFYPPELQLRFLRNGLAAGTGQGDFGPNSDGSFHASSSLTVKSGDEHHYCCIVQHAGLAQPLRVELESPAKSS
Sequence of human FcRn (human) (chain, as listed by the source limits assumed, form in doubt, chain 2 of 2): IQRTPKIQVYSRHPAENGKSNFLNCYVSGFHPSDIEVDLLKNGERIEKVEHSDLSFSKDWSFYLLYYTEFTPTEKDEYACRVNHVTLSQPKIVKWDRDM

| Substance | Geo Mean EC50 (ug/ml), ADNKA, Donor 1 [1] | Geo Mean EC50 (ug/ml), ADNKA, Donor 2 [1] | Geo Mean EC50 (ug/ml), ADNKA, Donor 3 [1] | Geo Mean EC50 (ug/ml), ADNKA, Donor 4 [1] | Kd (human FcRn (human)) | Kd [2] |
| --- | --- | --- | --- | --- | --- | --- |
| 317 LS (antibody) | 0.0567 µg/mL | 0.231 µg/mL | 0.151 µg/mL | 0.0709 µg/mL | – | – |
| L9 (antibody) | – | – | – | – | 174 nM | 0.04 nM |
| CIS43 LS (antibody) | 0.0277 µg/mL | 0.143 µg/mL | 0.104 µg/mL | 0.0643 µg/mL | – | – |
| 317 DE-LS (antibody) | 0.0027 µg/mL | 0.0022 µg/mL | 0.0276 µg/mL | 0.0111 µg/mL | – | – |
| L9 LS (antibody) | 0.038 µg/mL | 0.514 µg/mL | 0.0887 µg/mL | 0.0286 µg/mL | – | – |
| hIgG1 WT control (antibody) | – | – | – | – | 102 nM | – |

— patent US20250296995A1
